How the values were obtained:
PSMA Fab [1] = molecular target: T1, PSMA Fab (biotinylated (site not stated)); test: clonal phage ELISA on captured PSMA Fab; competitor: PSMA antigen at saturating concentration
T1 construct: also called Anti-PSMA Fab; 006 PSMA Fab

PSMA Fab [2] = molecular target: T1, PSMA Fab; test: clonal phage ELISA on biotinylated PSMA Fab captured on neutravidin plate, anti-M13 HRP detection; no PSMA antigen
Experimental: (§1) Clonal phage were harvested as crude supernatants and screened via standard ELISAs. […] Prior to the addition of clonal phage. wells were incubated with blocking buffer and PSMA antigen or blocking buffer alone. Without washing or aspirating, clonal phage supernatants were then added to the wells and incubated for a short time. Wells were then washed followed by detection of bound phage using a horse radish conjugated anti-M13 antibody.

PSMA Fab (006 PSMA Fab) [3] = molecular target: T2, PSMA Fab (006 PSMA Fab); test: clonal phage ELISA on biotinylated PSMA Fab captured on neutravidin, anti-M13 HRP detection;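 also: crude clonal phage supernatants added to wells pretreated with PSMA antigen in blocking buffer or with blocking buffer only, then briefly incubated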
T2 construct: also called Anti-PSMA Fab
Experimental: as §1

PSMA Fab (006 PSMA Fab) [4] = molecular target: T2, PSMA Fab (006 PSMA Fab); test: clonal phage ELISA on captured PSMA Fab, wells pre-incubated with PSMA antigen as competitor
Experimental: as §1

[5] = molecular target: T3, PSMA Fab (SEQ ID NOs: 19, 20); test: as above
T3 construct: also called Anti-PSMA Fab; 006 PSMA Fab
Experimental: as §1

[6] = molecular target: T3, PSMA Fab (SEQ ID NOs: 19, 20); test: clonal phage ELISA, biotinylated PSMA Fab on neutravidin plate, anti-M13 HRP detection;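 also: crude clonal phage supernatants added to wells pretreated with blocking buffer either with or without PSMA antigen, bound phage read after washing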
Experimental: as §1

Anti-PSMA Fab [7] = molecular target: T4, Anti-PSMA Fab (biotinylated (site not stated)); test: clonal phage ELISA on captured PSMA Fab, wells pre-incubated with PSMA antigen as competitor, anti-M13 HRP detection;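 also: crude clonal phage supernatants added, with no intervening wash, to wells preincubated with PSMA antigen in blocking buffer, incubated briefly, then washed before detecting bound phage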
T4 construct: also called 006 PSMA Fab

Anti-PSMA Fab [8] = molecular target: T4, Anti-PSMA Fab; test: clonal phage ELISA on biotinylated PSMA Fab captured on neutravidin plate, anti-M13 HRP detection
Experimental: as §1

Binder	phage binding ELISA signal (PSMA Fab [1])	phage binding ELISA signal (PSMA Fab [2])	Phage binding ELISA signal, Anti-PSMA Fab with PSMA antigen (Anti-PSMA Fab [7])	Phage binding ELISA signal, Anti-PSMA Fab (Anti-PSMA Fab [8])	other results
PELACIPEWMCIGF [Phage-3515]	0.0803	1.69	–	–	–
EHRICVPQWMCTGF (Peptide-180 library clone, tested as clonal phage supernatant with the peptide fused to pIII of the bacteriophage) [Phage-3563]	–	–	–	–	Phage binding ELISA signal, Anti-PSMA Fab (PSMA Fab (006 PSMA Fab) [3]): 1.64; Phage binding ELISA signal, Anti-PSMA Fab in presence of PSMA (PSMA Fab (006 PSMA Fab) [4]): 0.0676
VTPQCVPMWMCTGF (Tested as crude clonal phage supernatant) [Phage-3543]	–	–	–	–	Phage binding ELISA signal, Anti-PSMA Fab with PSMA antigen [5]: 0.105; Phage binding ELISA signal, Anti-PSMA Fab [6]: 1.65
DARACVPEWMCYGF (Tested as crude clonal phage supernatant) [Phage-3546]	–	–	–	–	Phage binding ELISA signal, Anti-PSMA Fab with PSMA antigen [5]: 0.0805; Phage binding ELISA signal, Anti-PSMA Fab [6]: 1.65
AGMMCTPPWMCFGF (Clonal phage of the Peptide-180 library) [Phage-3554]	–	–	0.0664	1.64	–
TERVCVPDWMCAGF (Clonal phage of the Peptide-180 library) [Phage-3547]	–	–	0.0944	1.65	–
ADIYCKPVWMCTGF [Phage-3510]	0.0909	1.69	–	–	–
TYFRCEPSWMCTGL (Clonal phage of the Peptide-180 library) [Phage-3559]	–	–	0.073	1.64	–
LTQMCKPLWMCAGF [Phage-3506]	0.0786	1.69	–	–	–
MERMCVPSWMCTGF (Clonal phage of the Peptide-180 library) [Phage-3550]	–	–	0.089	1.64	–
EYMRCEPSWMCYGF [Phage-3509]	0.0584	1.69	–	–	–
TEQICKPAWMCTGL [Phage-3512]	0.0536	1.69	–	–	–
VKPMCVPEWMCSGL (Tested as crude clonal phage supernatant) [Phage-3540]	–	–	–	–	Phage binding ELISA signal, Anti-PSMA Fab with PSMA antigen [5]: 0.0907; Phage binding ELISA signal, Anti-PSMA Fab [6]: 1.65
SVTTCIPPWMCTGF [Phage-3513]	0.0979	1.69	–	–	–
IARTCVPAWMCSGF (Tested as crude clonal phage supernatant) [Phage-3538]	–	–	–	–	Phage binding ELISA signal, Anti-PSMA Fab with PSMA antigen [5]: 0.102; Phage binding ELISA signal, Anti-PSMA Fab [6]: 1.65
IEKVCVPAWMCMGF (Clonal phage of the Peptide-180 library) [Phage-3551]	–	–	0.238	1.64	–
LNAMCVPAWMCTGF (Tested as crude clonal phage supernatant) [Phage-3535]	–	–	–	–	Phage binding ELISA signal, Anti-PSMA Fab with PSMA antigen [5]: 0.0634; Phage binding ELISA signal, Anti-PSMA Fab [6]: 1.66
SVAYCVPTWMCDGL [Phage-3516]	0.0618	1.69	–	–	–
LYVKCSPEWMCIGF (Tested as crude clonal phage supernatant) [Phage-3542]	–	–	–	–	Phage binding ELISA signal, Anti-PSMA Fab with PSMA antigen [5]: 0.0709; Phage binding ELISA signal, Anti-PSMA Fab [6]: 1.65
QSMMCIPSWMCVGF (Clonal phage of the Peptide-180 library) [Phage-3556]	–	–	0.0679	1.64	–
IEIRCKPEWMCTSF [Phage-3505]	0.0708	1.7	–	–	–
MNIMCRPVWMCTGL (Clonal phage of the Peptide-180 library) [Phage-3549]	–	–	0.0993	1.65	–
VGHMCKPVWMCAGL [Phage-3511]	0.101	1.69	–	–	–
TPPFCIPKWMCQGF (Clonal phage of the Peptide-180 library) [Phage-3548]	–	–	0.117	1.65	–

Source: patent US20260242478A1 (published 2026)
